# Data taken from patent publication US8722052B2, “Vaccinia virus protein A46 peptide and use thereof” (priority 2008, dated 2014).
# Entries after “also recorded” stand apart in the source; their conditions may differ.
# Assays:
# [1] = tested on: TLR4; test: LPS-induced TNFα in PMA-differentiated U937 cells, ELISA; assay type: cell-based, human; settings: peptide 5 or 20 μM 1 h before 100 ng/ml LPS, 24 h
# Procedure: FIGS. 3A and B are bar charts showing the effect of peptides derived from A46 on LPS-induced TNFα in human U937 cells. Cells were differentiated with 200 nM PMA and seeded in 96 well plates (2×10^5 cells/ml) 24 hours before treatment. A46 peptides were added to the cells at a concentration of 5 or 20 μM 1 hour before stimulating with 100 ng/ml LPS. Supernatants were collected 24 hours after stimulation and assayed for TNFα by ELISA. No peptides were added into the control wells (black bars). (A) peptides A461-A467 (SEQ ID NO. 17 to 23). (B) peptides A468-A4614 (SEQ ID NO. 24 to 30) (excluding A4612 SEQ ID NO. 28). Data is representative of at least two experiments each performed in triplicate and is expressed as mean±s.d;
# (§1) Cytokine and chemokine production from cells or mouse serum was measured by ELISA using Duoset kits from R&D systems, according to the manufacturer's instructions.
# LPS is a component of a cell wall of Gram-negative bacteria which is recognised by a homodimer of TLR4 and signals to NFκB via both a MyD88- and TRIF-dependent pathway (O'Neill and Bowie, 2007). In order to examine the effect of the peptides on TLR4-dependent gene induction in human cells, the human monocytic lymphoma cell line U937 was used. U937 cells were differentiated into macrophages by treatment with 200 nM PMA for 24 hours before any further manipulations. […]
# [2] = target: T1, TLR4 (Mus musculus, UniProt Q9QUK6); test: LPS-induced TNFα in RAW264.7 cells, ELISA; assay type: cell-based, murine; set-up: endogenous in cells; host or cells: RAW264.7; immortalised murine bone-marrow-derived macrophages
# T1 sequence (Q9QUK6 26-835): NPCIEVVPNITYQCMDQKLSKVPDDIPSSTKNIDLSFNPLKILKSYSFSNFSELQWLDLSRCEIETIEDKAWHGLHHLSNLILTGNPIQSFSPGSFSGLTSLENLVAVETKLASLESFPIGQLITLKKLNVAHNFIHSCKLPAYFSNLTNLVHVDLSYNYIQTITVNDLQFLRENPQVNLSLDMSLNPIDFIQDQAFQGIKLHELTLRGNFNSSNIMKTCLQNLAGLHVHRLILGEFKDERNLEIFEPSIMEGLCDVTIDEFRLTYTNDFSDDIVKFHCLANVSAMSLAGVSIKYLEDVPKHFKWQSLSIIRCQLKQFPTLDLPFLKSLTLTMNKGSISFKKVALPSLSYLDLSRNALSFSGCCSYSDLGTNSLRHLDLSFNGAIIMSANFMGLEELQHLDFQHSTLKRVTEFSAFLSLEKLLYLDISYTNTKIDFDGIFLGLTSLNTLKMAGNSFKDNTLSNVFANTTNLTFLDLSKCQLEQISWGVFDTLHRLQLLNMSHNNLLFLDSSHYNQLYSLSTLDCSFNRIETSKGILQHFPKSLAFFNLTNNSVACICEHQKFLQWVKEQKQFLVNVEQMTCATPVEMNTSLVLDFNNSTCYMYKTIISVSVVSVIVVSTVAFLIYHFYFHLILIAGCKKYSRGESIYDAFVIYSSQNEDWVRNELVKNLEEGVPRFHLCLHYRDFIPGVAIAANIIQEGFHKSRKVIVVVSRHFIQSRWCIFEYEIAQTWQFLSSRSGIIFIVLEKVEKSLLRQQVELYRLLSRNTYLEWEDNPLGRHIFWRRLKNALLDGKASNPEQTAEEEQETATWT
# T1 sequence (Q9JHF9 19-160 partner): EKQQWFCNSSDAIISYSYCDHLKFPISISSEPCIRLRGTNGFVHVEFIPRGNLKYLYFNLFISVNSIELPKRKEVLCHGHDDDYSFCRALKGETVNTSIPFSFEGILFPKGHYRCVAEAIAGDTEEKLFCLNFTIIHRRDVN
# Procedure: FIGS. 5A and B are bar charts showing the dose-dependent inhibitory effect of A464R on LPS-induced TNFα in murine RAW264.7 cells. A464 (SEQ ID NO. 20) was added to the cells at a concentration of 5, 20 or 50 μM 1 hour before stimulating with 100 ng/ml LPS. Supernatant was collected 24 hours after stimulation and assayed for TNFα by ELISA (A) and cells were assayed for viability by the MTT assay (B.). No peptides were added to the control wells (black bars). Data is representative of at least three experiments each performed in triplicate and is expressed as mean±s.d;
# FIGS. 6A and B are bar charts showing the effect of peptides derived from A46 on LPS-induced TNFα in murine RAW264.7 cells. A46 peptides were added to the cells at a concentration of 1 or 5 μM 1 hour before stimulating with 10 ng/ml LPS. Supernatants were collected 6 hours after stimulation and assayed for TNFα by ELISA. No peptides were added into the control wells (black bars). (A) peptides A461-A467 (SEQ ID NO. 17 to 23). (B) peptides A468-A4614 (SEQ ID NO. 24 to 30) (excluding A4610 SEQ ID NO. 26 and A4612 SEQ ID NO. 28). Data is representative of at least two experiments each performed in triplicate and is expressed as mean±s.d;
# FIGS. 22 A and B are bar charts showing the effect of short A467 and A464 peptides, with 9R on either N- or C-terminus, on LPS- induced TNFα production in murine RAW264.7 cells. Cells were seeded in 96 well plates (1.5×10^5 cells/ml) 24 hours before treatment. Short A467 and short A464 peptides with the 9R delivery sequence on either the C-terminus (sA464C9R) (SEQ ID NO. 56) (A) or the N-terminus (sA464N9R) (SEQ ID NO. 57) (B) were added to the cells at a concentration of 5 or 25 μM 1 hour before stimulating with 10 ng/ml LPS. Normal full length A467 (SEQ ID NO. 23) and A464 (SEQ ID NO. 20) peptides were added at a concentration of 5 μM as positive controls. Supernatants were collected 6 hours after stimulation with the agonist and assayed for TNFα, by ELISA. No peptides were added to the control wells (black bars). Data is representative of at least three experiments each performed in triplicate and is expressed as mean±s.d;
# as §1
# TLR4, sequence (O00206 24-839): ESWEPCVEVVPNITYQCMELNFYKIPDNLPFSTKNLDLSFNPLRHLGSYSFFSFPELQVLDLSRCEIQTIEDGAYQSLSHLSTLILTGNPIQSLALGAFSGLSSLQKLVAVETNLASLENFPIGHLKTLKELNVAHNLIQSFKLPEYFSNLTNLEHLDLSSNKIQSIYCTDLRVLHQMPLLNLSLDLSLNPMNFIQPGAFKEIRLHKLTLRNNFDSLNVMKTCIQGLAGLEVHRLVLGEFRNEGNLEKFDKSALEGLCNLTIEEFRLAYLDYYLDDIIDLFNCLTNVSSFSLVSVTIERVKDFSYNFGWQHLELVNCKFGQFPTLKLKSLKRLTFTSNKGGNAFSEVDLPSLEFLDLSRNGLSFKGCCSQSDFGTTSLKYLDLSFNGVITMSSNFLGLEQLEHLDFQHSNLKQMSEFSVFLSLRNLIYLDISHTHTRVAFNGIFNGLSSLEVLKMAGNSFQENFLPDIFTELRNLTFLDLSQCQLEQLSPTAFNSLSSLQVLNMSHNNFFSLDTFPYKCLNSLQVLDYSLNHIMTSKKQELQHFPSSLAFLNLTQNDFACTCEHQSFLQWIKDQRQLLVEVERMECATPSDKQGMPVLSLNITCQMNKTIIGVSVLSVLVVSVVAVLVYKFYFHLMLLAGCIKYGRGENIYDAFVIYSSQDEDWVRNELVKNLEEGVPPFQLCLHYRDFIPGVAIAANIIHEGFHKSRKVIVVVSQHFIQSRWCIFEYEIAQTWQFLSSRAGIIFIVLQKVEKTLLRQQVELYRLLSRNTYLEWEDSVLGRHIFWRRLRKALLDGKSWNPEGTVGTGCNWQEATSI
# TLR4, sequence (Q9Y6Y9 17-160 partner limits assumed): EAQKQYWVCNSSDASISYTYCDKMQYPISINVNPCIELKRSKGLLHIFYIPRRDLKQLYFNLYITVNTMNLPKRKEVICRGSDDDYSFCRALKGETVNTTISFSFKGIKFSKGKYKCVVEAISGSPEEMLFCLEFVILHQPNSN
sequence,measurement,setting,value
KYSFKLILAEYRRRRRRRRR [Peptide A464],inhibition of LPS (TLR4)-induced TNFα production,[1],potently inhibit TLR4-mediated TNFα production; also recorded: very potent inhibitory effect
same,inhibition of LPS-induced mTNFα,"[2]; peptide 1 or 5 μM 1 h before 10 ng/ml LPS, 6 h",inhibited LPS-induced mTNFα at 1 and 5 μM
same,inhibition of LPS-induced murine TNFα production,"[2]; peptide 5, 20 or 50 μM 1 h before 100 ng/ml LPS, 24 h",potently inhibited LPS-induced murine TNFα production in RAW264.7 cells at just 5 μM
